According to patent publication US5766581, “Method for treating mammals with monopegylated proteins that stimulates megakaryocyte growth and differentiation” (Amgen Inc., dated 1998):

Assays:
[1] = target: murine Mpl receptor, full length, expressed on 32D cells (subclone 1A6.1) (murine) (UniProt Q08351)
[2] = target: human Mpl receptor, full length, on cells (human) (UniProt P40238)
[3] = target: murine Mpl receptor, full length, expressed on 32D cells (subclone 1A6.1) (murine) (UniProt Q08351); remark: listed apart in the source
[4] = target: murine Mpl receptor, full length, expressed on 32D cells (subclone 1A6.1) (murine, UniProt Q08351); experiment: cell-based or functional assay
[5] = target: human Mpl receptor, full length, on cells (human, UniProt P40238); experiment: cell-based or functional assay

Molecule | 1A6.1 cell growth, fraction diluted 1:45000 (cells per well) [1] | Human Meg assay (units/mg) [2] | 1A6.1 assay (units/mg) [3] | U/ml (- mur-MPL-X), 1A6.1 cells [4] | Megakaryocytes per Well (-mur-MPL-X) [5]
31 kd canine Mpl ligand purified from aplastic canine plasma |  | 5.7e+09 units/mg | 6.52e+09 units/mg |  | 
human MGDF-2 (amino acids 1-174 of SEQ ID NO: 25) (ligand) SPAPPACDLRVLSKLLRDSHVLHSRLSQCPEVHPLPTPVLLPAVDFSLGEWKTQMEETKAQDILGAVTLLLEGVMAARGQLGPTCLSSLLGQLSGQVRLLLGALQSLLGTQLPPQGRTTAHKDPNAIFLSFQHLLRGKVRFLMLVGGSTLCVR |  |  |  | 12800 U/ml | 100 megakaryocytes per well

Next, values leading:

1A6.1 cell growth, fraction diluted 1:45000 (cells per well) [1] | Human Meg assay (units/mg) [2] | 1A6.1 assay (units/mg) [3] | U/ml (- mur-MPL-X), 1A6.1 cells [4] | Megakaryocytes per Well (-mur-MPL-X) [5] | Molecule
6000 | 1.4e+10 units/mg | 1.05e+10 units/mg |  |  | 25 kd canine Mpl ligand purified from aplastic canine plasma
 |  |  | 0 U/ml | 2 megakaryocytes per well | human MGDF-3 (amino acids 1-265 of SEQ ID NO: 27) (ligand) SPAPPACDLRVLSKLLRDSHVLHSRLSQCPEVHPLPTPVLLPAVDFSLGEWKTQMEETKAQDILGAVTLLLEGVMAARGQLGPTCLSSLLGQLSGQVRLLLGALQSLLGTQLPPQGRTTAHKDPNAIFLSFQHLLRGKDFWIVGDKLHCLSQNYWLWASEVAAGIQSQDSWSAEPNLQVPGPNPRIPEQDTRTLEWNSWTLSWTLTQDPRSPGHFLRNIRHRLPATQPPAWIFSFPNPSSYWTVYALPSSTHLAHPCGPAPPPAS
